Measured values from patent publication US12162937B2, “Methods of treating an inflammatory disorder by administering an antibody which binds to a connexin CX43 hemichannel” (BOARD OF REGENTS OF THE UNIVERSITY OF TEXAS SYSTEM, priority 2013, dated 2024).
“Also recorded” adds a separate entry of the source. Where two headings read alike, the source gives them in different places.

What was measured:
[1] = biological target: T1, Cx43 hemichannels (Mus musculus, UniProt P23242); conditions: MLO-A5 osteoblasts, AD treatment
T1 sequence (P23242 whole entry): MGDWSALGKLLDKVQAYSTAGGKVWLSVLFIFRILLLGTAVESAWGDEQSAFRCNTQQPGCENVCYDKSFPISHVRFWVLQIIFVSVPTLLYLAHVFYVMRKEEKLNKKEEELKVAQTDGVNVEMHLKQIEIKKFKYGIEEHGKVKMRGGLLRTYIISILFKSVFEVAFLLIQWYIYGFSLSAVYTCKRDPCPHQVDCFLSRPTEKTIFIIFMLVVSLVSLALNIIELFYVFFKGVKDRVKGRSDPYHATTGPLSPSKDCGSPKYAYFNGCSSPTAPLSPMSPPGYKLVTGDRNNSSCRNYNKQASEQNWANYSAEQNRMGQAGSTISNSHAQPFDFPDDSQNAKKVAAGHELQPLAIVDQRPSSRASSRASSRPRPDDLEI
Experimental: Ethidium bromide dye uptake was conducted and quantified as compared to non-treated basal level of uptake. Study was carried out in calcium conditions. Low calcium conditions were used as control (opens hemichannels). […] MLO-Y4 osteocytic cells were treated with 20 μM AD for 30 min in the absence or presence of 1 μg/ml Cx43(E2) antibody. Ethidium bromide dye uptake assay was conducted and quantified as compared to non-treated basal level of uptake. The assays were carried out in the presence of calcium. Low calcium conditions were used as a control (opens hemichannels).

[2] = tested on: MDA-MB-231 cells; experiment: Wound healing migration assay; assay type: cell-based; conditions: cancer cells treated directly with AD
Excerpt: FIGS. 5A and 5B illustrate the results of studies using a wound healing migration assay. CM-AD from osteocytes inhibits MDA-MB-231 cell migration.
FIG. 6 illustrates results of another wound healing migration assay.
Opening of osteocytic Cx43 hemichannels mediate a negative effect on cancer cell migration. Cx43 hemichannels in osteocytes are opened by administration of AD or FFSS. The opened hemichannels permit the release of various factors into the medium producing a conditioned medium (CM). The released factor(s) in the AD- or FFSS-treated CM decrease cancer cell migration as determined by soft agar and wound healing assays. An example of a soft agar assay is diagrammed in FIG. 3. […] The soft agar assay is an assay for anchorage-independent growth, as contrasted with anchorage-dependent growth. Only cancer cells can grow on soft agar and their growth on this matrix indicates the extent of the cancer cell proliferation.
In certain aspects the methods include incubating primary osteocytes or osteocyte cell lines with a test reagent in α-MEM for various periods of time and collecting the supernatant (conditioned media) at various time points. In certain aspects breast or prostate cancer cells are incubated with CM and cancer cell proliferation, migration, and invasion are determined.

[3] = biological target: Cx43 hemichannels in osteocytes (Homo sapiens, UniProt P17302); conditions: Plotkin et al., 2002; cited from earlier work
Sequence of Cx43 hemichannels in osteocytes (P17302 whole entry): as the sequence (P23242 whole entry) above, with E124D, V164I, R243K, T251S, P253A, S257A, P263Q, S341N, A344S, V347L counted along it

[4] = biological target: T2, gap junctions (HeLa cells transfected with Cx43) (Homo sapiens, UniProt P17302); experiment: Microinjection dye transfer (dye coupling) assay for gap junctions; assay type: cell-based; conditions: HeLa cells transfected with Cx43, mAbs for 3 h
T2 construct: expressed in transfected cells; host or cells: HeLa cells
T2 sequence (P17302 whole entry): as the sequence (P23242 whole entry) above, with E124D, V164I, R243K, T251S, P253A, S257A, P263Q, S341N, A344S, V347L counted along it
Experimental: (§1) Dye uptake assay was performed in the presence of EtBr with or without mAbs for 20 min. (B) HeLa cells transfected with Cx43 were incubated with mAbs for 3 h and a signal cell was microinjected with AlexaFluor 488 to evaluate the extent of dye transfer assayed for gap junctions.
Dye coupling assay for gap junctions. MLO-Y4 cells were plated on collagen coated 35 mm dish and incubated with recording medium (HCO3^− free αMEM medium buffered with 10 mM HEPES). Cells were microinjected using a micromanipulator InjectMan NI 2 and Femtojet both from Eppendorf (Eppendorf) at 37° C. with alexafluor 350 (Invitrogen, Eugene, Oregon, USA) (10 mM in PBS). Dye transfer was measured after 2 minutes of alexafluor 350 injection. The index of dye coupling was scored counting the number of cells that were dye transferred. Dye coupling was observed under an inverted microscope equipped with Xenon arc lamp illumination and a Nikon eclipse (Nikon, Japan) (excitation wavelengths 330-380 nm; emission wavelengths above 420 nm).

[5] = biological target: T3, hemichannel opening in mouse bone osteocytes (Mus musculus, UniProt P23242); experiment: Evans blue dye uptake in mechanically loaded tibias in vivo; conditions: 25 mg/kg injected 2 hr before Evans blue dye, tibia loaded 10 min
T3 construct: from tissue; host or cells: tibial bone osteocytes of living WT mice (Cx43 cKO mice as negative control)
T3 sequence (P23242 whole entry): as the sequence (P23242 whole entry) above
Experimental: FIG. 17. […] Mouse IgG or Cx43(M1) mAb (25 mg/kg) was injected 2 hr before Evans blue dye injection Into WT and Cx43 cKO mice. 30 min after dye injection, left (L) tibias were mechanically loaded once for 10 min. Mice were euthanized and perfused with 50 ml PBS. Tibias were isolated and fixed and bone tissue sections were prepared. Bar, […]. The arrowheads indicate dye uptake.
Determining the effect a compound on the opening of hemichannels in osteocytes in bone tissue in vivo. One example of an in vivo assay to analyze hemichannels in osteocytes uses 3-4 month old mice or rats. The animals are weighed. A test reagent is introduced into the animal through intraperitoneal (IP) injection. After 2-4 hours, fluorescence tracer dyes (i.e. Evans blue, Alexa 594) are injected into lateral tail vein of the animal or by IP injection. Note: up to 1% of animal's body weight in volume can be injected. In certain aspects the animal is warmed prior to tail vein injection to dilate the tail vein. After 2-4 hours, the animal is scarified and tibial and femur bones free of muscle tissues are dissected and washed multiple times with PBS. […] The bone sections can be examined under fluorescence microscope and the degree of osteocytes in the bone taking up tracer dyes are quantified using Image J. […]

[6] = biological target: T4, gap junction channels (Hela cells transfected with Cx43) (Homo sapiens, UniProt P17302); experiment: Parachuting dye transfer assay for gap junctions; assay type: cell-based; conditions: Hela cells transfected with Cx43, calcein red-orange-AM / Oregon green 488 BAPTA-2-AM
T4 construct: expressed in transfected cells; host or cells: HeLa cells
T4 sequence (P17302 whole entry): as the sequence (P23242 whole entry) above, with E124D, V164I, R243K, T251S, P253A, S257A, P263Q, S341N, A344S, V347L counted along it
Experimental: FIG. 15 illustrates parachuting dye transfer assay showing M2 and M7, but not M1 blocks gap junction channels. Hela cells transfected with Cx43 was used for parachuting dye transfer experiments. Donor cells were incubated with 5 μM calcein red-orange-AM (790 Da) which is permeable to gap junctions and 5 μM Oregon green 488 BAPTA-2-AM (1752 Da) which is non-permeable to gap junctions for 40 minutes at 37° C. Donor cells were treated with trypsin and separated preloaded cells were layered (‘parachuted’) over the top of the unlabeled recipient cells at a 1:4 donor to receiver ratio. Cells were allowed to attach for 90 min. The cells were examined under a fluorescence microscope.
Cell parachute dye-transfer assay for gap junctions. MLO-Y4 cells were grown to confluence in 12 well plates. The donor cells were incubated with 5 μM calcein red-orange-AM (790 Da) and 5 μM Oregon green 488 BAPTA-2-AM (1752 Da) for 40 minutes at 37° C. Gap junction intercellular communication can be followed by simultaneously labeling cells with calcein red-orange as a gap junction permeable tracer dye and the gap junction channel impermeable dye Oregon green 488 BAPTA-2. Donor cells preloaded were remove form the plate by trypsinization. Preloaded cells were layered (‘parachuted’) over the top of the unlabeled recipient cells cultured in at a 1:4 donor to receiver ratio. Cells were allowed to attach for various periods 1 hours, and then carefully washed 3 times and fixed in fresh 2% PFA 10 min RT and rinse 3 times again. The cells were examined with a fluorescence microscope. For calcein red-orange transfer, the threshold was adjusted to clearly distinguish the dye-transfer boundaries. The dye transfer positive criterion was detecting the calcein red-orange/Oregon green 488 BAPTA-2 with contact cells calcein red-orange positive and Oregon green 488 BAPTA-2 negative. The dye transfer was almost undetectable (<1%). The images were taken in places where we found Oregon green 488 BAPTA-2 green positive cells.

[7] = biological target: T1, Cx43 hemichannels; experiment: Dye uptake assay for hemichannel activity in low Ca2+ and Mg2+ media; assay type: cell-based; set-up: endogenous in cells; host or cells: MLO-Y4 osteocytic cells; conditions: MLO-Y4 cells, mAbs for 20 min
Experimental: as §1
(§2) Dye uptake for hemichannel activities. Dye uptake measurements were evaluated using snap shot photographs. MLO-Y4 cells were plated on the collagen coated 35 mm dish and incubated with recording medium, HCO3^− free saline medium buffered with 10 mM HEPES salt composition in mM, 154 NaCl, 5.4 KCl, 1.8 CaCl2, 1.0 MgCl2, 5 Glucose. Medium with low concentration of divalent cation (low[X^2]) was added 0.5 mM EGTA but not CaCl2 and MgCl2. The recording or low[X^2] containing 50 μM EtBr for snap shot recording. Cells were exposed to 100 μM of EtBr during 5 min, then rinsed 3 times with PBS and fixed with 2% […]. At least 3 microphotographs of fluorescence fields were taken with a 10× dry objective in an inverted microscope (Carl Zeiss) with a rhodamine filter. The image analysis was made offline with the software image J. The average of pixel density of 30 random cells was measured.

[8] = biological target: T1, Cx43 hemichannels; experiment: Dye uptake after fluid flow shear stress in MLO-Y4 cells; assay type: cell-based; set-up: endogenous in cells; host or cells: MLO-Y4 osteocytic cells; conditions: mAbs 20 min pretreatment, fluid flow shear stress 8 dynes/cm^2 10 min, 100 μM EtBr 5 min
Experimental: FIG. 16. […] MLO-Y4 cells were pretreated with or without mAbs for 20 min. The cells were subjected to fluid flow shear stress at 8 dynes/cm^2 for 10 min and dye uptake was performed with 100 μM EtBr for 5 min. Cells were rinsed, fixed and images were taken under fluorescence microscopy.
as §2
Fluid flow shear stress to open hemichannels. Fluid flow was created by parallel-plate flow chambers separated by a gasket of defined thickness with gravity-driven fluid flow using a peristaltic pump. The thickness of the gasket determined the channel height, which was adjusted along with flow rate to generate stress levels of 16 dyn/cm^2. The circulating medium was α-MEM buffered with 10 mM HEPES.

Molecule	opening of Cx43 hemichannels in osteoblasts [1]	opening of Cx43 hemichannels in osteoblasts ([1]; listed as alendronate)	blocking of gap junctions (AlexaFluor 488 dye transfer) [4]	blocking of hemichannel opening induced by mechanical loading in osteocytes in vivo [5]	blocking of gap junction channels (parachuting dye transfer) [6]	blocking of hemichannels (EtBr dye uptake) [7]	blockage of hemichannel opening induced by mechanical loading [8]	direct effect on migration of MDA-MB-231 cells [2]	opening of Cx43 hemichannels in osteocytes [3]
NCCCC(O)(P(=O)(O)O)P(=O)(O)O [AD, alendronate]	does not open	do not appear to open						does not have a direct effect; also recorded: not seen	induces the opening
M7: mouse monoclonal antibody, heavy chain SEQ ID NO:10, light chain SEQ ID NO:12 (antibody, listed as Mus musculus) heavy: LEQPGAELVRPGASVMLSCKASGYIFTTYWMHWLKQRPGQGLDWIGEISPSNGRSNYNKKFKSKATLTVDKSSSTAYMQLSSLTSEDSAVYYCARFDEGDFWGQGTTLIVSSAKTTAPSVYPLAPVCGDTTGSSV light: DIVMTQTPASLAVSLGQRATISYRASKSVSTSGYSYMHWNQQKPGQPPRLLIYLVSNLESGVPARFSGSGSGTDFTLNIHPVEEEDAATYYCQHIRELTRSEGGPSWK					blocks		blockage		

Now from value to molecule, other results behind:

opening of Cx43 hemichannels in osteoblasts [1]	opening of Cx43 hemichannels in osteoblasts ([1]; listed as alendronate)	blocking of gap junctions (AlexaFluor 488 dye transfer) [4]	blocking of hemichannel opening induced by mechanical loading in osteocytes in vivo [5]	blocking of gap junction channels (parachuting dye transfer) [6]	blocking of hemichannels (EtBr dye uptake) [7]	blockage of hemichannel opening induced by mechanical loading [8]	Molecule	direct effect on migration of MDA-MB-231 cells [2]	opening of Cx43 hemichannels in osteocytes [3]
		not gap junctions	blocks	not	blocks hemichannels	blockage	M1: mouse monoclonal antibody, heavy chain SEQ ID NO:2, light chain SEQ ID NO:4 (antibody, listed as Mus musculus) heavy: EVQLEQPGAELVKPGASVKLSCKASGYTFTSYYMYWVKQRPGQGLEWIGGINPSNGGTNFNEKFKNKATLTVDKSSSTAYMQLSSLTSEDSAVYYCTREGNPYYTMNYWGQGTSVTVSSAKTTPPSVY light: DIVMTQTPASLAVSLGQRATISYRASKSVSTSGYSYMHWNQQKPGQPPRLLIYLVSNLESGVPARFSGSGSGTDFTLNIHPVEEEDAATYYCQHIRELTRSEGGPSWK		
		blocks gap junctions		blocks	not hemichannels	not	M2: mouse monoclonal antibody, heavy chain SEQ ID NO:6, light chain SEQ ID NO:8 (antibody, listed as Mus musculus, V domains shown) VH: EVQLEQPGAELVKPGASVKLSCKASGYTFTSYYMYWVKQRPGQGLEWIGGINPSNGGTNFNEKFKNKATLTVDKSSSTAYMQLSSLTSEDSAVYYCTREGNPYYTMNYWGQGTSVTVSSAKTTPPSVY VL: DIVMTQTPSSLSVSAGEKVTMSCKSSQSLLNSGNQKTYLAWYQQKPGQPPKLLIYGASTRESGVPDRFTGSGSGTDFTLTISSVQAEDLAVYYCQNDHSYPFTFGSGTKLEIKRADAAPTVS		
